3 molecules from PMC5803617 (Journal of Cachexia, Sarcopenia and Muscle, 2017) can be followed below.

Test [1] deals with MuRF1/telethonin complex co-expressed in yeast from pBridge::MuRF1/telethonin (rat) (UniProt Q91Z63). In words: yeast three-hybrid.
Test [2] addresses GST-MuRF1/telethonin complexes, cross-linked (rat) (UniProt Q91Z63). In words: SPR. For orientation: In SPR one partner is held on a chip, and binding of the other changes the refractive index at the surface.
The target of another test is GST-MuRF1 (rat, UniProt Q91Z63 1-351). In words: SPR.

Usually Kd stands for the free concentration of one partner at which half of the binding sites on the other are occupied at equilibrium, for simple one-to-one binding. A low value points to a tighter complex.

MuRF1/telethonin complex co-expressed in yeast from pBridge::MuRF1/telethonin (rat), sequence (Q91Z63 whole entry, looked up, one chain of several): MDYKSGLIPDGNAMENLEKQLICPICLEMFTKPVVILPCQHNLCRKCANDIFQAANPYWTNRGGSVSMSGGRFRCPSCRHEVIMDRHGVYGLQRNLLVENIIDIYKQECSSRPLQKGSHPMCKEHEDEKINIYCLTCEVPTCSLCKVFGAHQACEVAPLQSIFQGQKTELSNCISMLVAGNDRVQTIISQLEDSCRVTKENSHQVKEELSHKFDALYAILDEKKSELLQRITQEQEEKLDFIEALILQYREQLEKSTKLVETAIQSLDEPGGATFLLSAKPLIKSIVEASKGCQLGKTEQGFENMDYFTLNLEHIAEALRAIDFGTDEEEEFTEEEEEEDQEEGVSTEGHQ
GST-MuRF1, sequence (Q91Z63 whole entry): as the sequence (Q91Z63 whole entry, looked up, one chain of several) above

Molecule “UBE2E1 fused to the activation domain of GAL4 (from UniProt P52482 1-193) (enzyme)” yielded a percent positive clones in test [1] of 93%. Take “UBE2E1, untagged recombinant (from UniProt P52482 1-193) (enzyme)”: the Kd in test [2] is 5 nM.

B1: UBE2G1, untagged recombinant (enzyme, human, UniProt P62253 1-170, looked up)
chain: MTELQSALLLRRQLAELNKNPVEGFSAGLIDDNDLYRWEVLIIGPPDTLYEGGVFKAHLTFPKDYPLRPPKMKFITEIWHPNVDKNGDVCISILHEPGEDKYGYEKPEERWLPIHTVETIMISVISMLADPNGDSPANVDAAKEWREDRNGEFKRKVARCVRKSQETAFE
The molecule B1 registered a percent positive clones in test [1] of 58%. In the test with GST-MuRF1, the “ka of the E2G1 dimer (heterogeneous analyte model)” value is ~300 M⁻¹ s⁻¹ and the “ka of the E2G1 monomer (heterogeneous analyte model)” value was ~4000 M⁻¹ s⁻¹.
